Measured values reported in publication PMC11629141 (2024).
Residue numbers refer to the chain shown, from its start. Names may count otherwise.

B1: S2B W104A scFv, solitary (scFv, V domains shown)
VH: AVTLDESGGGLQTPGGGLSLVCKASGFTFSSYSMVWVRQAPSKRLEWVAGIYSSATWTYYAPAVKGRATISRDNGQSTVRLQLNDLRAEDTGTYFCAKTSRSGATAYSASAIDAWGHGTEVIV
VL: ALTQPSSVSANPGETVKITCSGGSSYYGWYQQKSPGSAPVTVIYSNDKRPSDIPSRFSGSTSGSTATLTITGVQADDEAVYFCGGYDSNIHGGIFGAGTTLTVL
B2: S2B S164A scFv, solitary (scFv, V domains shown)
VH: B1 VH with A104W
VL: B1 VL with S24A
B3: His‐tagged human FcγRIIB extracellular domain protein (domain or fragment)
chain: TPAAPPKAVLKLEPQWINVLQEDSVTLTCRGTHSPESDSIQWFHNGNLIPTHTQPSYRFKANNNDSGEYTCQTGQTSLSDPVHLTVLSEWLVLQTPHLEFQEGETIVLRCHSWKDKPLVKVTFFQNGKSKKFSRSDPNFSIPQANHSHSGDYHCTGNIGYTLYSSKPVTITVQAP
B4: S2B scFv (blocking anti‐6G11 scFv clone 2), solitary (scFv, V domains shown)
VH: B1 VH with A104W
VL: B1 VL
B5: S2B Y52A scFv, solitary (scFv, V domains shown)
VH: B1 VH with Y52A, A104W
VL: B1 VL
B6: S2B R101A scFv, solitary (scFv, V domains shown)
VH: B1 VH with R101A, A104W
VL: B1 VL

Key:
[1] = molecular target: T1, 6G11 (BI‐1206), full‐length antibody containing the PGLALA Fc mutations (human); experiment: BLI
[2] = molecular target: T1, 6G11 (BI‐1206), full‐length antibody …; experiment: ELISA
[3] = molecular target: T2, S2B‐W104A‐6G11 post MMP‐9 digestion (scFv cleaved off, not removed) (human | chicken); experiment: BLI
[4] = molecular target: T3, S2B‐R101A‐6G11 post MMP‐9 digestion (scFv cleaved off, not removed) (human | chicken); experiment: BLI
[5] = molecular target: T4, S2B‐Y52A‐6G11 post MMP‐9 digestion (scFv cleaved off, not removed) (human | chicken); experiment: BLI
[6] = molecular target: T4, S2B‐Y52A‐6G11 post MMP‐9 digestion …; experiment: BLI; MMP-9 cleaved
Target sequence in this assay (heavy, as listed by the source, chain 2 of 2): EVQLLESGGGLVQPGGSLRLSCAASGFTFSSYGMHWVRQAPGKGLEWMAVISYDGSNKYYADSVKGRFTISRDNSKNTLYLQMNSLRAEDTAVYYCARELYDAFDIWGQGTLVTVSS
Target sequence in this assay (light, as listed by the source, chain 4 of 2): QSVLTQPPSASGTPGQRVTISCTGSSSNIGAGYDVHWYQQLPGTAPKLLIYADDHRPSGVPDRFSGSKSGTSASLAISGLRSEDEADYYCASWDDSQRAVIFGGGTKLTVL

[7] = molecular target: T2, S2B‐W104A‐6G11 post MMP‐9 digestion …; experiment: BLI; MMP-9 cleaved
Target sequence in this assay (heavy, as listed by the source, chain 2 of 2): as the sequence (heavy, as listed by the source, chain 2 of 2) above
Target sequence in this assay (light, as listed by the source, chain 4 of 2): as the sequence (light, as listed by the source, chain 4 of 2) above

[8] = molecular target: T3, S2B‐R101A‐6G11 post MMP‐9 digestion …; experiment: BLI; MMP-9 cleaved
Target sequence in this assay (heavy, as listed by the source, chain 2 of 2): as the sequence (heavy, as listed by the source, chain 2 of 2) above
Target sequence in this assay (light, as listed by the source, chain 4 of 2): as the sequence (light, as listed by the source, chain 4 of 2) above

[9] = molecular target: T1, 6G11 (BI‐1206), full‐length antibody …; experiment: ELISA; first of two printed values (3.3/28.7)

T1 sequence (VH, as listed by the source, chain 1 of 2): as the sequence (heavy, as listed by the source, chain 2 of 2) above
T1 sequence (VL, as listed by the source, chain 2 of 2): as the sequence (light, as listed by the source, chain 4 of 2) above

| Kd [1] [nM] | EC50 [2] [nM] | further results | Binder |
| --- | --- | --- | --- |
| 9.6 | 6.7 |  | B1 |
| 0.8 | 2.7 |  | B2 |
|  |  | Kd [3]: 10.3 nM; Kd [4]: 10.7 nM; Kd [5]: 10.1 nM; Kd [6]: 10.1 nM; Kd [7]: 10.3 nM; Kd [8]: 10.7 nM | B3 |
| 1 |  | EC50 [9]: 3.3 nM | B4 |
| 4.3 | 11.2 |  | B5 |
|  | 3.7 |  | B6 |
